This note sets out measurements from publication PMC4752478, “Probing the Catalytic Mechanism of Vibrio harveyi GH20 β-N-Acetylglucosaminidase by Chemical Rescue” (PLoS ONE, 2016).

Where a name gives a salt, the structure may show the parent alone.

One data set addresses T1, VhGlcNAcase (Vibrio harveyi, UniProt D9ISE0).
T1 sequence (D9ISE0 1-642): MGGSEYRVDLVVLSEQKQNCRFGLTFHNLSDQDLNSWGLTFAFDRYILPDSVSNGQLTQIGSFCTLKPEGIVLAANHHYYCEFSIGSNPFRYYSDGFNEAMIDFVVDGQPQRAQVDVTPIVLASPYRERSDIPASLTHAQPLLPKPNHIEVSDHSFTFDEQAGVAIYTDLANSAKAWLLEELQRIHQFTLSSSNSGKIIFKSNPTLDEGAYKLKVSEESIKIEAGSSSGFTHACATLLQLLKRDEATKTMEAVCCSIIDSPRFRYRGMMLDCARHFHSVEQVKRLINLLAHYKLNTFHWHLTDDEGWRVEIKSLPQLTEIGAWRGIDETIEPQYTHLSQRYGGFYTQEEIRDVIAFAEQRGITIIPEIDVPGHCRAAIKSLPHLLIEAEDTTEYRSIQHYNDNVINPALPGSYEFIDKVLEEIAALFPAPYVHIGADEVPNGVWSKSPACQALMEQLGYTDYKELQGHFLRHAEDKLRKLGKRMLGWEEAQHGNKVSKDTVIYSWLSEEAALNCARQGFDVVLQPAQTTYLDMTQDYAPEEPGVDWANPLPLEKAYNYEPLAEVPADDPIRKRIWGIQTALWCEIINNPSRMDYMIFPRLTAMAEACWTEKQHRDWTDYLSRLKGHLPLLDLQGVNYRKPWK
The data set can be described thus: biochemical. To be noted: read-out: Specific activity (nmol/min/μg) / 1 M HCOONa.

The test system of data set [1] is CC(=O)N[C@H]1[C@H](Oc2ccc([N+](=O)[O-])cc2)O[C@H](CO)[C@@H](O)[C@@H]1O. The data set can be described thus: purified protein. To be noted: no sodium formate, 100 mM sodium phosphate pH 7.0, 37°C.

Take `O=CO` [sodium formate]: on VhGlcNAcase, the activity at 1 M worked out at 80%.
For the molecule VhGlcNAcase (Vibrio harveyi; D437A), in data set [1], the Km – broadly, the substrate concentration at which the rate is half of its maximum – is 390 ± 32 µM; the turnover number (kcat) (as a rule, the number of substrate molecules converted per active site and unit of time at saturation) worked out at 0.14 ± 0.01 s⁻¹; the kcat/Km (usually the turnover number divided by the Michaelis constant) worked out at 360 M⁻¹ s⁻¹.
